This passage reports EC50 results from patent US20240279331A1 (University of California, published 2024).

The target of experiment [1] is T1, NCR3 (antigen of the ELISA in the affinity-maturation table) (human, UniProt O14931 19-135, limits assumed).
T1 construct: also called Natural Cytotoxicity Triggering Receptor 3
T1 sequence (looked up): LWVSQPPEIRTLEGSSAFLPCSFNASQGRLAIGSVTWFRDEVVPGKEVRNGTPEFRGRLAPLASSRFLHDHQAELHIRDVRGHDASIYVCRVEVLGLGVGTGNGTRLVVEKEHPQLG
In words: ELISA, Fab on NCR3.

Experiment [2] has as its target T2, NCR3 on cell (on-cell binding in the affinity-maturation table) (human, UniProt O14931 19-201, limits assumed).
T2 construct: On cell
T2 sequence (looked up): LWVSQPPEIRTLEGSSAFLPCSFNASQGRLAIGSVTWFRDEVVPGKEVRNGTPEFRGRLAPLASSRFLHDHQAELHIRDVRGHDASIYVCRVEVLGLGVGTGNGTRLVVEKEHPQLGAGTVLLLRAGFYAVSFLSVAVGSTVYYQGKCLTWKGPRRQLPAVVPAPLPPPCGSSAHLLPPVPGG
The experiment in a line: on-cell binding, Fab on NCR3.

B1: NCR3.18.1 (Fab, V domains shown)
VH: EVQLVESGGGLVQPGGSLRLSCAASGFNVSSSSIHWVRQAPGKGLEWVASISSSSGSTSYADSVKGRFTISADTSKNTAYLQMNSLRAEDTAVYYCARRASSRFRSYYDSFYYAGMDYWGQGTLVTVSS
VL: DIQMTQSPSSLSASVGDRVTITCRASQSVSSAVAWYQQKPGKAPKLLIYSASSLYSGVPSRFSGSRSGTDFTLTISSLQPEDFATYYCQQSSSSLITFGQGTKVEIKR
notes: substitutions derived by comparing with parental HC3
With B1, the concentration for a half-maximal effect (EC50) in experiment [1] came to 0.78 nM; in experiment [2], 2.14 nM.

B2: NCR3.18.17 (Fab, V domains shown)
VH: EVQLVESGGGLVQPGGSLRLSCAASGFNVSSSSIHWVRQAPGKGLEWVASISSSSGSTSYADSVKGRFTISADTSKNTAYLQMNSLRAEDTAVYYCARRVGSYYMSYYDSFYYAGMDYWGQGTLVTVSS
VL: DIQMTQSPSSLSASVGDRVTITCRASQSVSSAVAWYQQKPGKAPKLLIYSASSLYSGVPSRFSGSRSGTDFTLTISSLQPEDFATYYCQQSSSSLITFGQGTKVEIKR
notes: substitutions derived against parental HC3
For the molecule B2, the half-maximal effective concentration (EC50) was found to be 0.58 nM in experiment [1] and 2.11 nM in experiment [2].

B3: NCR3.18.19 (Fab, V domains shown)
VH: EVQLVESGGGLVQPGGSLRLSCAASGFNVSSSSIHWVRQAPGKGLEWVASISSSSGSTSYADSVKGRFTISADTSKNTAYLQMNSLRAEDTAVYYCARRVSSPYMSYYDSFYYAGLDYWGQGTLVTVSS
VL: DIQMTQSPSSLSASVGDRVTITCRASQSVSSAVAWYQQKPGKAPKLLIYSASSLYSGVPSRFSGSRSGTDFTLTISSLQPEDFATYYCQQSSSSLITFGQGTKVEIKR
notes: as for B2
As for B3, the EC50 in experiment [1] was found to be 0.38 nM; in experiment [2], 1.41 nM.

B4: NCR3.18.9 (Fab, V domains shown)
VH: EVQLVESGGGLVQPGGSLRLSCAASGFNVSSSSIHWVRQAPGKGLEWVASISSSSGSTSYADSVKGRFTISADTSKNTAYLQMNSLRAEDTAVYYCARRKSSSYWSYYDSFYYAGMDYWGQGTLVTVSS
VL: DIQMTQSPSSLSASVGDRVTITCRASQSVSSAVAWYQQKPGKAPKLLIYSASSLYSGVPSRFSGSRSGTDFTLTISSLQPEDFATYYCQQSSSSLITFGQGTKVEIKR
notes: as for B2
Consider B4, for which the EC50 stood at 0.51 nM in experiment [1] and 2.24 nM in experiment [2].

B5: NCR3.18.14 (Fab, V domains shown)
VH: EVQLVESGGGLVQPGGSLRLSCAASGFNVSSSSIHWVRQAPGKGLEWVASISSSSGSTSYADSVKGRFTISADTSKNTAYLQMNSLRAEDTAVYYCARRTGSYYMTYYDSFYYAGMDYWGQGTLVTVSS
VL: DIQMTQSPSSLSASVGDRVTITCRASQSVSSAVAWYQQKPGKAPKLLIYSASSLYSGVPSRFSGSRSGTDFTLTISSLQPEDFATYYCQQSSSSLITFGQGTKVEIKR
notes: as for B2
Take B5: the concentration for a half-maximal effect (EC50) in experiment [1] turned out to be 0.57 nM; in experiment [2] it was 3.11 nM.

B6: NCR3.18.3 (Fab, V domains shown)
VH: EVQLVESGGGLVQPGGSLRLSCAASGFNVSSSSIHWVRQAPGKGLEWVASISSSSGSTSYADSVKGRFTISADTSKNTAYLQMNSLRAEDTAVYYCARRIGSIYRSYYDSFYYAGMDYWGQGTLVTVSS
VL: DIQMTQSPSSLSASVGDRVTITCRASQSVSSAVAWYQQKPGKAPKLLIYSASSLYSGVPSRFSGSRSGTDFTLTISSLQPEDFATYYCQQSSSSLITFGQGTKVEIKR
notes: as for B2
With B6, the values for the concentration for a half-maximal effect (EC50) in experiment [1] and in experiment [2] were 0.68 nM and 1.61 nM, respectively.

B7: NCR3.18.7 (Fab, V domains shown)
VH: EVQLVESGGGLVQPGGSLRLSCAASGFNVSSSSIHWVRQAPGKGLEWVASISSSSGSTSYADSVKGRFTISADTSKNTAYLQMNSLRAEDTAVYYCARRISSYYISYYDSFYYAGMDYWGQGTLVTVSS
VL: DIQMTQSPSSLSASVGDRVTITCRASQSVSSAVAWYQQKPGKAPKLLIYSASSLYSGVPSRFSGSRSGTDFTLTISSLQPEDFATYYCQQSSSSLITFGQGTKVEIKR
notes: as for B2
For the molecule B7, the 50% effective concentration (EC50) was determined as 1.23 nM in experiment [1] and 3.19 nM in experiment [2].

B8: NCR3.18.18 (Fab, V domains shown)
VH: EVQLVESGGGLVQPGGSLRLSCAASGFNVSSSSIHWVRQAPGKGLEWVASISSSSGSTSYADSVKGRFTISADTSKNTAYLQMNSLRAEDTAVYYCARRVSSNYMSYYDSFYYAGMDYWGQGTLVTVSS
VL: DIQMTQSPSSLSASVGDRVTITCRASQSVSSAVAWYQQKPGKAPKLLIYSASSLYSGVPSRFSGSRSGTDFTLTISSLQPEDFATYYCQQSSSSLITFGQGTKVEIKR
notes: as for B2
Turning to B8, the EC50 in experiment [1] turned out to be 2.2 nM; in experiment [2] it was 3.39 nM.

B9: NCR3.18.15 (Fab, V domains shown)
VH: EVQLVESGGGLVQPGGSLRLSCAASGFNVSSSSIHWVRQAPGKGLEWVASISSSSGSTSYADSVKGRFTISADTSKNTAYLQMNSLRAEDTAVYYCARRTSSHYISYYDSFYYAGMDYWGQGTLVTVSS
VL: DIQMTQSPSSLSASVGDRVTITCRASQSVSSAVAWYQQKPGKAPKLLIYSASSLYSGVPSRFSGSRSGTDFTLTISSLQPEDFATYYCQQSSSSLITFGQGTKVEIKR
notes: as for B2
For B9, the concentration giving a half-maximal response (EC50) in experiment [1] was 2.98 nM; in experiment [2], 6.76 nM.

B10: NCR3.18.6 (Fab, V domains shown)
VH: EVQLVESGGGLVQPGGSLRLSCAASGFNVSSSSIHWVRQAPGKGLEWVASISSSSGSTSYADSVKGRFTISADTSKNTAYLQMNSLRAEDTAVYYCARRISSSYMSYYDSFYYAGMDYWGQGTLVTVSS
VL: DIQMTQSPSSLSASVGDRVTITCRASQSVSSAVAWYQQKPGKAPKLLIYSASSLYSGVPSRFSGSRSGTDFTLTISSLQPEDFATYYCQQSSSSLITFGQGTKVEIKR
notes: as for B2
Turning to B10, the figures for the EC50 in experiment [1] and in experiment [2] were 1.38 nM and 4.67 nM, respectively.

B11: NCR3.18.8 (Fab, V domains shown)
VH: EVQLVESGGGLVQPGGSLRLSCAASGFNVSSSSIHWVRQAPGKGLEWVASISSSSGSTSYADSVKGRFTISADTSKNTAYLQMNSLRAEDTAVYYCARRISSYYVSYYDSFYYAGMDYWGQGTLVTVSS
VL: DIQMTQSPSSLSASVGDRVTITCRASQSVSSAVAWYQQKPGKAPKLLIYSASSLYSGVPSRFSGSRSGTDFTLTISSLQPEDFATYYCQQSSSSLITFGQGTKVEIKR
notes: as for B2
On to B11, for which the EC50 in experiment [1] came to 0.95 nM; in experiment [2] it was 2.74 nM.

B12: NCR3.18.4 (Fab, V domains shown)
VH: EVQLVESGGGLVQPGGSLRLSCAASGFNVSSSSIHWVRQAPGKGLEWVASISSSSGSTSYADSVKGRFTISADTSKNTAYLQMNSLRAEDTAVYYCARRISSHYMSYYDSFYYAGMDYWGQGTLVTVSS
VL: DIQMTQSPSSLSASVGDRVTITCRASQSVSSAVAWYQQKPGKAPKLLIYSASSLYSGVPSRFSGSRSGTDFTLTISSLQPEDFATYYCQQSSSSLITFGQGTKVEIKR
notes: as for B2
With B12, the half-maximal effective concentration (EC50) was 2.29 nM in experiment [1] and 1.44 nM in experiment [2].

B13: NCR3.18.13 (Fab, V domains shown)
VH: EVQLVESGGGLVQPGGSLRLSCAASGFNVSSSSIHWVRQAPGKGLEWVASISSSSGSTSYADSVKGRFTISADTSKNTAYLQMNSLRAEDTAVYYCARRRSSYYMTYYDSFYYAGMDYWGQGTLVTVSS
VL: DIQMTQSPSSLSASVGDRVTITCRASQSVSSAVAWYQQKPGKAPKLLIYSASSLYSGVPSRFSGSRSGTDFTLTISSLQPEDFATYYCQQSSSSLITFGQGTKVEIKR
notes: as for B2
Regarding B13, the EC50 in experiment [1] was 0.98 nM; in experiment [2], 2.55 nM.

B14: NCR3.18.11 (Fab, V domains shown)
VH: EVQLVESGGGLVQPGGSLRLSCAASGFNVSSSSIHWVRQAPGKGLEWVASISSSSGSTSYADSVKGRFTISADTSKNTAYLQMNSLRAEDTAVYYCARRLGSRYRSYYDSFYYAGMDYWGQGTLVTVSS
VL: DIQMTQSPSSLSASVGDRVTITCRASQSVSSAVAWYQQKPGKAPKLLIYSASSLYSGVPSRFSGSRSGTDFTLTISSLQPEDFATYYCQQSSSSLITFGQGTKVEIKR
notes: as for B2
With B14, the 50% effective concentration (EC50) in experiment [1] was determined as 0.77 nM; in experiment [2] it was 1.47 nM.

B15: NCR3.18.12 (Fab, V domains shown)
VH: EVQLVESGGGLVQPGGSLRLSCAASGFNVSSSSIHWVRQAPGKGLEWVASISSSSGSTSYADSVKGRFTISADTSKNTAYLQMNSLRAEDTAVYYCARRRASYYKTYYDSFYYAGMDYWGQGTLVTVSS
VL: DIQMTQSPSSLSASVGDRVTITCRASQSVSSAVAWYQQKPGKAPKLLIYSASSLYSGVPSRFSGSRSGTDFTLTISSLQPEDFATYYCQQSSSSLITFGQGTKVEIKR
notes: as for B2
For the molecule B15, the EC50 in experiment [1] is 0.53 nM; in experiment [2], 2.13 nM.

B16: NCR3.18.10 (Fab, V domains shown)
VH: EVQLVESGGGLVQPGGSLRLSCAASGFNVSSSSIHWVRQAPGKGLEWVASISSSSGSTSYADSVKGRFTISADTSKNTAYLQMNSLRAEDTAVYYCARRKSSYYMSYYDSFYYAGMDYWGQGTLVTVSS
VL: DIQMTQSPSSLSASVGDRVTITCRASQSVSSAVAWYQQKPGKAPKLLIYSASSLYSGVPSRFSGSRSGTDFTLTISSLQPEDFATYYCQQSSSSLITFGQGTKVEIKR
notes: as for B2
B16: the concentration giving a half-maximal response (EC50) was 1.11 nM in experiment [1] and 4.09 nM in experiment [2].
